Results: patent US20260265385A1, “CD122 BINDING AGENTS AND METHOD OF USING SAME” (AnaptysBio, Inc., priority 2022, published 2026)

T1: Human IL-2Rβ (Homo sapiens, UniProt P14784)
T1 construct: corresponding to residues Ala1-Thr215 of the extracellular domains excluding the signal peptide
T1 sequence (P14784 26-240 limits assumed): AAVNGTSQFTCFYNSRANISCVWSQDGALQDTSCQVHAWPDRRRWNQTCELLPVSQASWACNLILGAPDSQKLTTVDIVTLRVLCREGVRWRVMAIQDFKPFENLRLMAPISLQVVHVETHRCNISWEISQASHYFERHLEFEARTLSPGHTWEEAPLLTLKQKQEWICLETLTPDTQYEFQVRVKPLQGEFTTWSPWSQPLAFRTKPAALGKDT

T2: Cynomolgus IL-2Rβ (Macaca fascicularis, UniProt Q38J85)
T2 construct: corresponding to residues Ala1-Thr215 of the extracellular domains excluding the signal peptide
T2 sequence (Q38J85 26-240 limits assumed): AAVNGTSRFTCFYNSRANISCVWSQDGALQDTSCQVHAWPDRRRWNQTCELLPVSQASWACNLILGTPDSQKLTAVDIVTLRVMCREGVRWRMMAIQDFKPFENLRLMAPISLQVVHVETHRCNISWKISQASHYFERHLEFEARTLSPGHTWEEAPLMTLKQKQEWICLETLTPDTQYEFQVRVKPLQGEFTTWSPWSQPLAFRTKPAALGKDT

T3: IL-2RB (Homo sapiens, UniProt P14784)
T3 sequence (P14784 27-551): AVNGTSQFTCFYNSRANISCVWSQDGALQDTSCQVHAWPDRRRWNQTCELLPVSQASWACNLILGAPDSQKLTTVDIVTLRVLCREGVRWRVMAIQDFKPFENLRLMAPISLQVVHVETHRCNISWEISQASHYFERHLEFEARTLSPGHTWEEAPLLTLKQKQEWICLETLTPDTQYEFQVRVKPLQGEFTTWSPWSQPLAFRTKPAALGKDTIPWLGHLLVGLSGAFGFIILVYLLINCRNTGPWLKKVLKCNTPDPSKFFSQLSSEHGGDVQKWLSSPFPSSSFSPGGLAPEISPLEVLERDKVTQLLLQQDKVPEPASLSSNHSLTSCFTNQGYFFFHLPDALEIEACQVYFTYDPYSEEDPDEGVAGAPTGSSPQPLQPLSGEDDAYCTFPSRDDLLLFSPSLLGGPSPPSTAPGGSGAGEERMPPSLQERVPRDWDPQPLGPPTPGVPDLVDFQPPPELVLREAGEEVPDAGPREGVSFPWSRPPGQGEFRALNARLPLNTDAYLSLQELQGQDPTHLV


Experiments:
[1] = system: PHA-stimulated primary human T cell blasts; assay: IL-2- or IL-15-induced proliferation of PHA-stimulated T cell blasts (CTG); assay type: cell-based; details: IL-2 (15 pM) or IL-15 (150 pM) induced proliferation, IgG4 antibodies, compared with upadacitinib, FIG. 4
Description: Primary human PBMCs were isolated from whole blood donors, and stimulated in cuture for 3 days with 5 μg/mL PHA in a T75 flask. Cells were washed, counted, and plated at 100,000 cells/well in a 96-well plate. Antibodies were titrated at the concentrations indicated in FIG. 4, starting at 100 nM with 1:3 dilutions, and added to the cells. Recombinant IL-2 (15 pM) or IL-15 (150 pM) were added to the cells. Cells were cultured for an additional three days. SteadyGlo substrate was added for 10 minutes and the plates were read on the GloMax machine. Data were analyzed using Graphpad Prism software.

Human IL-2Rβ = target: T1, Human IL-2Rβ; assay: SPR binding affinity to recombinant human IL-2Rβ (Biacore); details: 1:1 binding model
Description: (§1) Surface plasmon resonance (SPR) was used to determine the binding affinities. The M6-1625 and M10-1275 antibodies were captured onto a Cytiva Protein A Chip for 60 seconds at 0.5 μg/mL for 60 seconds. The antibodies were exposed to recombinant human LL-2Rβ or cynomolgus LL-2Rβ (corresponding to residues Ala1-Thr215 of the extracellular domains excluding the signal peptide) at typical concentrations ranging from 0.4 nM to 11 nM with typical 300 second associations and 1200 second dissociations using a BiacoreS200 instrument. Sensorgrams were fit globally using a 1:1 binding model in the Biacore T200 Evaluation Software to calculate on- and off-rates and KD values.

[2] = system: xenogeneic NSG(huIL-15Tg)/Hu-PBMC Graft vs. Host Disease (GvHD) model; assay: Xenogeneic NSG(huIL-15Tg)/Hu-PBMC GvHD model, Example 14; assay type: in vivo, mice; details: 10 mg/kg, 3 mg/kg, or 1 mg/kg intraperitoneally twice weekly for 4 weeks; FIG. 14
Description: A xenogeneic NSG(huIL-15Tg)/Hu-PBMC GvHD model testing the efficacy of the anti-CD122 antibody disclosed herein was performed at The Jackson laboratory JAX® In Vivo Pharmacology Services (Sacramento, CA). NOD-scidIL2rγ^null (NSG) human IL-15 transgenic mice were irradiated with 1 Gy followed by intravenous injection of human PBMCs in each mouse. APE15428 (IgG1-LALA) was dosed intraperitoneally at 10 mg/kg, 3 mg/kg, or 1 mg/kg twice weekly for 4 weeks starting the day following PBMC injection. Disease was monitored three times weekly by body weight loss, death, and GvHD scores measuring: weight loss, activity, fur texture, paleness, and posture.

Cynomolgus IL-2Rβ = target: T2, Cynomolgus IL-2Rβ; assay: SPR binding affinity to recombinant cynomolgus IL-2Rβ (Biacore); details: 1:1 binding model
Description: as §1

IL-2RB = target: T3, IL-2RB; assay: Ability to block IL-2 (SPR assay); assay type: binding; details: chimeric antibodies

| Molecule | Kd (Human IL-2Rβ) | Kd (Cynomolgus IL-2Rβ) | also measured |
| --- | --- | --- | --- |
| M10-1275: anti-CD122 IgG4 antibody of the M10-1275 class tested in Example 4; APE number not stated (antibody, V domains shown) VH: DVQLQQSGAELARPGASVKLSCTVSGFNFKDSLMHWVTQGPERGLRWIGWIDSENGETEYAPGFQDKATITADTSSSTVYLHLSSLTSEDTAIYYCARGGPWFLSYWGPGTTLTVSS VL: DIVLTQTPATLSVTPGDSVSLSCRASQIISNNLHWYQQKSHESPRLLIIYGLQSISGIPYRFSGRRSGTDFTLNINSVEIEDFGMYFCQQSNNWPWTFGGGTKLDIRR | – | – | blocking IL-2 and IL-15 [1]: better than upadacitinib |
| M6-1625: anti-CD122 IgG4 antibody of the M6-p1625 class tested in Example 4; APE number not stated (antibody, V domains shown) VH: QVQLQQSGAELMKPGASVKISCKSTGYTFSRYWIEWVKQRPGHGLEWIGEILPGSGSINHNEKFQGKATFTADTSSNTVYMQLSSLTSEDSAVYFCTRHYGSFDYWGQGTTLTVSS VL: EIVMTQSPKFMSTSVGDRVSVTCKASQNVGTDVAWYQQKPGQSPKALIYSASYRYNGVPDRFTGSGSGTDFTLTISNVQSEDLAEYFCHQYSSYPFTFGSGTKLEIKR | – | – | blocking IL-2 and IL-15 [1]: better than upadacitinib |
| APE15428: M6-p1625 series anti-CD122 antibody, VH SEQ ID NO: 69, VL SEQ ID NO: 77 (antibody, V domains shown, IgG1 LALA Fc format) VH: QVQLVQSGAEVKKPGASVKVSCKASGYTFTRFWIQWVRQAPGQGLEWMGEILPGSGSINHNEKFQGRVTMTRDTSTSTVYMELSSLRSEDTAVYYCTRHYGSFDYWGQGTTVTVSS VL: DIQMTQSPSSLSASVGDRVTITCKASQNVGTDVAWYQQKPGKAPKSLIYSASYRYSGVPSRFSGSGSGTDFTLTISSLQPEDFATYFCHQYESYPFTFGQGTKLEIKR | 56.7 pM | 76.5 pM | median time to survival vs. isotype control [2]: statistically significant efficacy |
| APE15295: M6-p1625 series anti-CD122 antibody, VH SEQ ID NO: 68, VL SEQ ID NO: 77 (antibody, V domains shown, IgG4P format) VH: QVQLVQSGAEVKKPGASVKVSCKASGYTFTRFWIQWVRQAPGQGLEWMGEILPGSGSINHNEKFQGRVTMTRDTSTSTVYMELSSLRSEDTAVYYCTRHYGSFDYWGQGTTVTVSS VL: DIQMTQSPSSLSASVGDRVTITCKASQNVGTDVAWYQQKPGKAPKSLIYSASYRYSGVPSRFSGSGSGTDFTLTISSLQPEDFATYFCHQYESYPFTFGQGTKLEIKR | 55.7 pM | 70.7 pM | – |
| APE15170: M10-1275 series anti-CD122 antibody, VH SEQ ID NO: 23, VL SEQ ID NO: 35 (antibody, V domains shown, IgG4P format) VH: EVQLVQSGAEVKKPGATVKISCKVSGFNFKESLIHWVQQAPGKGLEWMGWIDNEAGETEYAPGFQDRVTITADTSTDTAYMELSSLRSEDTAVYYCARGGPWFLSYWGQGTTVTVSS VL: EIVMTQSPATLSVSPGERATLSCRASQIISNNLHWYQQKPGQAPRLLIIYGLQSISGIPARFSGSRSGTEFTLTISSLQSEDFAVYFCQQSNNFPWTFGQGTKLEIKR | 12.8 pM | 4.87 pM | – |
| APE15446: M10-1275 series anti-CD122 antibody, VH SEQ ID NO: 24, VL SEQ ID NO: 35 (antibody, V domains shown) VH: EVQLVQSGAEVKKPGATVKISCKVSGFNFKESLIHWVQQAPGKGLEWMGWIDNEAGETEYAPGFQDRVTITADTSTDTAYMELSSLRSEDTAVYYCARGGPWFLSYWGQGTTVTVSS VL: EIVMTQSPATLSVSPGERATLSCRASQIISNNLHWYQQKPGQAPRLLIIYGLQSISGIPARFSGSRSGTEFTLTISSLQSEDFAVYFCQQSNNFPWTFGQGTKLEIKR | 10.7 pM | 4.15 pM | – |
| APE12705: M10-1275 series anti-CD122 antibody (chimeric in Table 3), VH SEQ ID NO: 1, VL SEQ ID NO: 25 (antibody, V domains shown) VH: DVQLQQSGAELARPGASVKLSCTVSGFNFKDSLMHWVTQGPERGLRWIGWIDSENGETEYAPGFQDKATITADTSSSTVYLHLSSLTSEDTAIYYCARGGPWFLSYWGPGTTLTVSS VL: DIVLTQTPATLSVTPGDSVSLSCRASQIISNNLHWYQQKSHESPRLLIIYGLQSISGIPYRFSGRRSGTDFTLNINSVEIEDFGMYFCQQSNNWPWTFGGGTKLDIRR | – | – | Blocking (IL-2 down) (IL-2RB): Partial |
| APE12383: M6-p1625 series anti-CD122 antibody (chimeric in Table 3), VH SEQ ID NO: 37, VL SEQ ID NO: 70 (antibody, V domains shown) VH: QVQLQQSGAELMKPGASVKISCKSTGYTFSRYWIEWVKQRPGHGLEWIGEILPGSGSINHNEKFQGKATFTADTSSNTVYMQLSSLTSEDSAVYFCTRHYGSFDYWGQGTTLTVSS VL: EIVMTQSPKFMSTSVGDRVSVTCKASQNVGTDVAWYQQKPGQSPKALIYSASYRYNGVPDRFTGSGSGTDFTLTISNVQSEDLAEYFCHQYSSYPFTFGSGTKLEIKR | – | – | Blocking (IL-2 down) (IL-2RB): Blocker |
